5 substances from article PMC4164784, “4E-BPs require non-canonical 4E-binding motifs and a lateral surface of eIF4E to repress translation” (Nature Communications, 2014) can be followed below.

No end group written: not given here.

The assay addresses T1, Dm eIF4E (residues 69–248, WT) (Drosophila melanogaster, UniProt P48598).
T1 construct: The truncated His6-eIF4E (residues 69–248) that was used in the ITC experiments; His6 (N, cleaved yes); made in house; host or cells: E. coli BL21 Star (DE3)
T1 sequence (P48598 69-248 isoform P48598-2): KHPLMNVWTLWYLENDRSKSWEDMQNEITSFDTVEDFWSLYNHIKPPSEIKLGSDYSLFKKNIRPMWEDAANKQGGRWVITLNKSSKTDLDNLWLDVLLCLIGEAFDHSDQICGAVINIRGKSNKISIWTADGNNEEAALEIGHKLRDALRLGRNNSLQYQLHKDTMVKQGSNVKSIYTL
The experiment in a line: ITC, binding to eIF4E (WT, residues 69–248). The conditions noted are these: for entropic penalty (in words): bipartite regions; for TΔS / ΔG / Molar ratio / ΔH: eIF4E WT (69–248), pH 7.0, nb = no binding; for TΔS / ΔG / Kd / Molar ratio / ΔH: 20 °C; for Kd: VP-ITC, 20 mM Na-phosphate (pH 7.0), 150 mM NaCl, GB1-fused peptides (C+NC 10 μM, C 50 μM, L+NC 100 μM CUP or 200 μM Thor and 4E-T, eIF4G 20 μM) into eIF4E WT 1–20 μM, one-site model, each experiment repeated twice, nb = no binding. As for the experimental part: Unless indicated otherwise, all the proteins were expressed in E. coli BL21 Star (DE3) cells (Invitrogen) that were grown in LB medium overnight at 20 °C. The lysis buffers were supplemented with DNaseI (5 μg ml^−1), lysozyme (1 mg ml^−1) and protease inhibitor cocktail (Roche). The truncated His6-eIF4E (residues 69–248) that was used in the ITC experiments and in Figs 2c and 5b was purified in lysis buffer containing 50 mM HEPES (pH 7.2), 300 mM NaCl, 20 mM imidazole and 2 mM β-mercaptoethanol using Ni^2+-affinity chromatography (HisTrap HP 5 ml, GE Healthcare) and eluted with a gradient of 20–500 mM imidazole. After the cleavage of the His6-tag with HRV3C protease (homemade), the protein was further purified using a heparin column (HiTrap Heparin HP 5 ml, GE Healthcare), followed by size exclusion chromatography (Superdex 75 16/60, GE Healthcare) in 20 mM Na-phosphate (pH 7.0), 300 mM NaCl and 2 mM dithiothreitol (DTT).
For the ITC measurements and the competition assays shown in Figs 4 and 5d–g, the 4E-BP peptides corresponding to the canonical (C) motifs, the combined (C+NC) motifs or L+NC were expressed with an HRV3C cleavable N-terminal MBP-tag and a non-cleavable C-terminal GB1 domain. The cells were lysed by sonication in lysis buffer containing 50 mM HEPES (pH 7.2), 300 mM NaCl and 2 mM DTT. The proteins were purified from the cleared lysates using amylose resin (New England Biolabs) followed by the cleavage of the MBP tag with HRV3C protease overnight at 4 °C. The proteins were further purified by size exclusion chromatography (Superdex 75 16/60, GE Healthcare) in 20 mM Na-phosphate (pH 7.0), 300 mM NaCl and 2 mM DTT. For the eIF4G fragment (residues 578–650) the MBP was removed after cleavage with TEV protease through an additional anion exchange chromatography (HiTrap Q HP 5 ml, GE Healthcare) before the final gel filtration.
The ITC experiments were performed using a VP-ITC microcalorimeter (MicroCal) at 20 °C. The solution of eIF4E (residues 69–248, WT or mutant: 1–20 μM) in the calorimetric cell was titrated with tenfold concentrated solutions of GB1-stabilized peptides corresponding to 4E-BPs C+NC (10 μM), C (50 μM), L+NC (100 μM CUP, 200 μM Thor and 4E-T) or eIF4G (residues 578–650, 20 μM) that were dissolved in the same buffer (20 mM Na-phosphate (pH 7.0) and 150 mM NaCl). The titration experiments consisted of an initial injection of 2 μl followed by 28 injections of 10 μl at an interval of 240 s. Each binding experiment was repeated twice. The thermodynamic parameters were estimated using a one-site binding model (Origin version 7.0), whereby the datapoint of the first injection was removed for the analysis.
(d) minimal regions for binding to eIF4E (wild-type (WT), residues 69–248). The top panels represent the raw data (μcal sec−1) whereas the bottom panels show the integrated data (kcal mole−1 of injectant) of heat changes that were best-fitted using a one-site binding model. The thermodynamic parameters correspond to heat changes that were detected when 4E-BPs (10 µM) or eIF4G (20 µM) were injected into the calorimetric cell (1.4 mL) containing 1 µM (a,b,c) or 2 µM (d) eIF4E.
Supplementary Figure 4. Thermodynamic parameters for the interaction of eIF4E with 4E-BP peptides. (a–f) ITC profiles for the interaction of eIF4E (WT, residues 69-248) and CUP (a,d), Thor (b,e) and 4E-T (c,f) peptides containing only the canonical motifs (a–c) or the L+NC regions (d–f). The measurements were performed as described in Supplementary
Fig. 3. The solutions contained the peptides corresponding to the canonical motifs (50 µM) or the L+NC regions (100 µM for CUP and 200 µM for Thor and 4E-T). The eIF4E concentration in the calorimetric cell was 5 µM (for the C peptides), 10 µM (for CUP L+NC) and 20 µM (for Thor and 4E-T L+NC peptides).
(1 picture or pasted object on this page, not shown here)

In turn, “4E-T C+NC: 4E-T residues 9–44, eIF4E-binding region short, C-terminal GB1” gave a TΔS of -11.7 kcal/mol and a ΔG of -11.11 kcal/mol. Besides, under “eIF4E WT”, the “entropic penalty (in words)” value is “lower entropic penalties”.

For the substance “4E-T C: 4E-T residues 9–21, canonical motif”, the dissociation constant (Kd) (commonly the constant that tells how readily two partners part at equilibrium) is 16 nM, the Molar ratio amounted to 0.95±0.01, the TΔS was -8.16 kcal/mol and the ΔG was -10.45 kcal/mol. Also, the ΔH was -18.6 ± 0.7 kcal/mol. Where the note is “eIF4E WT, C motif peptides”, the “affinity of the 4E-T C peptide relative to CUP and Thor C peptides” value was “approximately one and two orders of magnitude higher than those of the CUP and Thor peptides, respectively”.

On to “CUP C+NC: CUP residues 325–376, eIF4E-binding region short, C-terminal GB1 (KSYTRSRLMDIRNGMFNALMHRSKESFVMPRIATCDDIELEGRLRRMNIWRT-GB1; UniProt Q9VMA3 325-376, looked up, fragment)”, for which the affinity, expressed as Kd, was 9.1 nM; the Molar ratio was found to be 1.05±0.02; the TΔS was -23.9 kcal/mol; the ΔG was -10.78 kcal/mol. The same substance came in with a ΔH of -34.5 ± 0.35 kcal/mol. For the same substance, under “eIF4E WT”, the “entropic penalty (in words)” value is “highest entropic penalty”.

As to “Thor C+NC: Thor residues 50–83, eIF4E-binding region short, C-terminal GB1 (TKLIYERAFMKNLRGSPLSQTPPSNVPSCLLRGT-GB1; UniProt Q9XZ56 50-83, looked up, fragment)”, the TΔS was -4.9 kcal/mol and the ΔG is -11.87 kcal/mol. For the same substance, where the note is “eIF4E WT”, the “entropic penalty (in words)” value is recorded as “lower entropic penalties”.

Consider “Thor C: Thor residues 50–63, canonical motif”, for which the TΔS was -2.24 kcal/mol.
